Assay results as given in US20220088131A1, “COMPOSITIONS AND METHODS RELATING TO C5L2” (King's College London, priority 2013, published 2022).

Legend:
human CD4+ T cells [1] = assay: IL-1β secretion by CD4+ T cells (ELISA); type: cell-based; conditions: resting and activated (CD3/CD46) CD4+ T cells; dRA 7 μM; 24 h; FIG. 8
Experimental: (§1) FIG. 8. Effect of C5L2 blockage on IL-1β secretion by resting and activated CD4+ T cells and by monocytes. […] CD4+ T cells were isolated and left non-activated or CD3/CD46-activated as described (with or without addition of the C5aR/C5L2 double antagonist, dRA, 7 μM) and IL-1β secretion into the media measured at 24 h post activation using an ELISA. CD14+ monocytes (2.5×10^5) were left non-activated or activated with 100 ng/ml LPS for 12 h and supernatants assayed for IL-1β by ELISA. Data represent n=3 experiments with SEM for the CD4+ T cells and n=1 for monocytes (conditions were performed in duplicate and shown are the median values of each condition).
(§2) Human blood was obtained from healthy volunteers following ethical guidelines set by Kings College London (KCL) ethics committee (REC: 09/H0804/72). PBMCs were isolated by density centrifugation (Ficoll-Paque PLUS; GE healthcare, Uppsala, Sweden). Cell subsets were isolated by magnetic separation following manufacturer's instructions (Miltenyi Biotec, Auburn, Calif.). […]
(§3) The Th1/Th2/Th17 Cytometric Bead Array (BD Bioscience) was used to quantify cytokine production by CD4^+ T cells and monocytes following 12 or 36 h culture under distinct activation conditions. […] IL-1β amounts secreted into the cell media were measured by ELISA, according to the manufacturer's protocol (R&D Systems, Abingdon, UK).

CD14+ monocytes [2] = assay: IL-1β secretion by monocytes (ELISA); type: cell-based, human; conditions: resting and LPS-activated (100 ng/ml, 12 h) monocytes; FIG. 8
Experimental: as §1, §2, §3

human CD4+ T cells [3] = assay: Cytokine secretion by CD4+ T cells with C5aR or C5aR/C5L2 blockade (Cytometric Bead Array); type: cell-based
Description: Human blood was obtained from healthy volunteers following ethical guidelines set by Kings College London (KCL) ethics committee (REC: 09/H0804/72). PBMCs were isolated by density centrifugation (Ficoll-Paque PLUS; GE healthcare, Uppsala, Sweden). Cell subsets were isolated by magnetic separation following manufacturer's instructions (Miltenyi Biotec, Auburn, Calif.). Monocytes were positively selected using anti-CD14 microbeads (average purity 97%) and CD4^+ T cells were isolated from the CD14-negative fraction using anti-CD4 microbeads (average purity 98%). Alternatively, CD4^+ T cells were isolated from purified PBMCs by cell sorting after staining with antibodies to CD14 and CD4 and CD3.
CD4^+ T cells and CD14^+ monocytes were cultured in medium (RPMI-1640 medium (Sigma-Alich, Suffolk, UK), supplemented with 1% GlutaMAX, 1% penicillin/streptomycin (both Life Technologies, Paisley, UK) and 10% FBS (HyClone Laboratories, Logan, Utah). In the case of T cells media was supplemented with 25 U/ml IL-2 (Sigma-Aldrich; or with concentrations indicated in figure legends). CD4^+ T cells (2.5×10^5) were cultured alone or together with plate-bound anti-CD3 (OKT3, Biolegend, San Diego, Calif.), anti-CD3 and anti-CD28 (CD28.2, BD Pharmingen, San Jose, Calif.) or anti-CD3 and anti-CD46 (TRA-2-10, provided by John Atkinson, Washington University, St Louis, Mo.) all immobilised onto 48-well plates at concentrations of 2 μg/ml PBS overnight at 4° C. Monocytes (2.5×10^5) were cultured either alone or in the presence of LPS or Flagellin (1 μg/ml). […] Cells were cultured at 37° C. and 5% CO2 and cytokine secetion assessed at 12, 24 or 36 h post activation.
The Th1/Th2/Th17 Cytometric Bead Array (BD Bioscience) was used to quantify cytokine production by CD4^+ T cells and monocytes following 12 or 36 h culture under distinct activation conditions. Samples were processed following manufacturer's instructions and acquired using BD FACScan. IL-1β amounts secreted into the cell media were measured by ELISA, according to the manufacturer's protocol (R&D Systems, Abingdon, UK).

CD4+ T cells = assay: TGF-β receptor chain expression in CD4+ T cells; type: cell-based, human; conditions: FIG. 16
Experimental: FIG. 16. C5L2 regulates TGF-β receptor chain expression in CD4+ T cells.
Results described above indicate that C5L2-mediated signals actively contribute to the negative regulation of human Th1 and Th17 responses. To further define C5L2-activated signaling events in CD4+ T cells, gene, miRNA and methylation arrays were performed using T cells from the C5-deficient patient and T cells activated in the presence of the dRA. […] It is believed that TGF-β is important for IL-17 production but also IFN-γ suppression. TGF-β receptor signaling via autocrine TGF-β production has been implicated as required for control of Th1 responses and prevention of autoimmunity in certain experimental models (Ishigame, et al., Proc Natl Acad Sci USA. (2013) 110(17):6961-6). It was of interest to examine whether C5L2-mediated signals regulate autocrine TGF-β production, TGF-β receptor signaling, or both.

CD14+ monocytes [4] = assay: Pro-inflammatory cytokine release by monocytes (CBA); type: cell-based, human; conditions: resting and Flagellin-stimulated monocytes; 36 hours; dRA 7 μM, PMX53 10 μM; FIG. 9
Experimental: FIG. 9. C5L2 blockade induces pro-inflammatory cytokine release by human monocytes. CD14+ monocytes (2.5×10^5) were cultured for 36 hours and supernatants assayed for cytokines using CBA. Monocytes were treated with either C5aR/C5L2 double receptor antagonist (dRA; 7 μM), C5aR antagonist (PMX53; 10 μM) or control (non-treated). The effect of antagonist treatment was assessed on non-activated monocytes (white bars) as well as monocytes activated with 1 μg/ml of either Flagellin (light grey bars) or 100 ng/ml LPS (dark grey bars). Data represent n=4 experiments with SEM indicated. Statistical testing was not conducted as insufficient experimental repeats were performed to assume normal distribution. Asterisk denotes that the median value was 10,400 pg/ml.
Human blood was obtained from healthy volunteers following ethical guidelines set by Kings College London (KCL) ethics committee (REC: 09/H0804/72). PBMCs were isolated by density centrifugation (Ficoll-Paque PLUS; GE healthcare, Uppsala, Sweden). […]
as §3

[5] = activated CD4+ T cells, dRA 7 μM, PMX53 10 μM, FIG. 6

B1: A8delta71-73: Dual C5aR/C5L2 receptor antagonist; C5a variant A8 (C27A, H67F, D69R, M70S, Q71L, G73R, Arg74 deleted) lacking amino acids 71-73 (protein)
chain: TLQKKIEEIAAKYKHSVVKKCCYDGAAVNNDETCEQRAARISLGPRCIKAFTECCVVASQLRANISFKRS
Human CD4+ T cells [1]
  IL-1β secretion: increased IL-1β secretion
CD14+ monocytes [2]
  IL-1β secretion: increased IL-1β secretion
Human CD4+ T cells [3]; [5]
  secretion of IFN-γ: increased secretion
  secretion of IL-17: increased secretion
Human CD4+ T cells [3]; resting and activated CD4+ T cells, FIG. 7A
  secretion of IL-6: increased secretion
CD4+ T cells
  expression of TGF-β receptor chains: increased expression
CD14+ monocytes [4]
  secretion of IL-6: promoted secretion
